The subject of data set [1] is Clostridium difficile strain ATCC43596. The experiment in a line: Anti-C. difficile toxin Mab hamster infection study. It is filed as in vivo, Golden Syrian hamsters. The conditions noted are these: 5 mg/kg twice a day for 5 days (p.o.) on days 1-5. How it is done: The hamster infection study was performed by Ricerca Biosciences LLC, Cleveland, Ohio, USA. The study protocol was approved by the Ricerca IACUC committee. Active and control components (composition and dose) were blinded to Ricerca staff until after completion of the planned 28 day study period.
Golden Syrian male hamsters (weight 82-103 g, 54 days old) were individually housed in HEPA filtered disposable cages and fed Teklad Global Diet 2016 and water ad libitum. After acclimatisation, hamsters were pre-dosed (i.p.) with Mab mixtures or PBS (vehicle control) once a day for each of 4 days: days −3, −2, −1 and 0. Two doses of Mab were investigated: high dose=50 mg/kg each of anti-TcdA and anti-TcdB components and low dose 5 mg/kg each of anti-TcdA and anti-TcdB components.
Hamsters were sensitised (day −1) with 50 mg/kg of Clindamycin phosphate in PBS (s.c.) before being challenged 1 day later (day 0) with 3.4×106 c.f.u. of vegetative cells from strain ATCC43596. […]
Viability checks were performed on animals twice a day, animals found to be in extremis were euthanised and counted as dead. Body weights were determined on each day of dosing, then twice weekly and before euthanising survivors. […] Survival curves were analysed using the P value from the log rank test compared to the Bonferroni corrected threshold of P=0.005. […]

For data set [2], the target named is TcdB1234 (Clostridioides difficile, UniProt P18177). The conditions noted are these: Purified Mab 3 point titration.
Description: (§1) Kinetic constants for the interactions of anti-C. difficile TcdA and TcdB antibodies were determined by surface plasmon resonance conducted on a BIAcore 3000 using CM5 sensor chips. All experiments were performed at 25° C. Affinipure F(ab′)2 fragment goat anti-human IgG, Fc fragment specific (Jackson ImmunoResearch) was immobilised on a CM5 Sensor Chip (GE) via amine coupling chemistry to a capture level of ≈7000 response units (RUs).
(§2) Double referenced background subtracted binding curves were analysed using the BIAevaluation software (version 3.2) following standard procedures. Kinetic parameters were determined from the fitting algorithm
A short description of data set [3]: Estimation of isoelectric point (pI) by capillary IEF. It is filed as physicochemical. As for the experimental part:
Samples were prepared by mixing the following: 30 ul Protein sample at 2 mg/ml, 0.35% Methylcellulose, 4% pH3-10 ampholytes (Pharmalyte), synthetic pI markers (4.65 and 9.77), 1 ul of each stock solution, and HPLC grade water to make up the final volume to 200 ul. The mixture was then analysed using iCE280 IEF analyzer (pre-focusing at 1500V for 1 min followed by focusing at 3000V for 6 mins). The calibrated electropherograms were then integrated using Empower software (from Waters)

Data set [4] is described as follows: Thermal stability (Tm) measured via Thermofluor assay. The data set is classed as physicochemical. The conditions noted are these: PBS pH 7.40. As for the experimental part:
This method uses Sypro orange fluorescent dye to monitor the unfolding process of protein domains. The dye binds to exposed hydrophobic regions that become exposed as a consequence of unfolding which results in a change to the emission spectrum.
The sample (5 ul at 1 mg/ml) is mixed with a 5 ul of a stock solution of Sypro orange (30×) and the volume made up to 50 ul with PBS, pH 7.40.
10 ul aliquots of this solution is applied to wells in a 384 well plate (n=4).
The plate is placed in a 7900HT fast real-time PCR system containing a heating device for accurate temperature control. The temperature is increased from 20° C. to 99° C. (Ramp rate of 1.1° C./min). A CCD device simultaneously monitors the fluorescence changes in the wells. An algorithm is used to process intensity data and take into account multiple transitions.
Background: DSF heats the sample and reads unfolding from a dye or from intrinsic fluorescence.

The target of data set [5] is TcdA456 (Clostridioides difficile, UniProt P16154). The following applies: Purified Mab 5 point titration.
Description: as §1, §2

Consider `CN[C@H](CC(C)C)C(=O)N[C@H]1C(=O)N[C@@H](CC(N)=O)C(=O)N[C@H]2C(=O)N[C@H]3C(=O)N[C@H](C(=O)N[C@H](C(=O)O)c4cc(O)cc(O)c4-c4cc3ccc4O)[C@H](O)c3ccc(c(Cl)c3)Oc3cc2cc(c3O[C@@H]2O[C@H](CO)[C@@H](O)[C@H](O)[C@H]2O[C@H]2C[C@](C)(N)[C@H](O)[C@H](C)O2)Oc2ccc(cc2Cl)[C@H]1O` [vancomycin], for which the survival result in data set [1] was “all died on days +10 and +11”.

B1: 1134.g5: anti-toxin B antibody; light chain variable SEQ ID NO: 147, heavy SEQ ID NO: 149 (antibody, V domains shown)
VH: EVQLQESGPGLVKPSETLSLTCTVSGFSLNSYTITWVRQPPGKGLEWIAAISGGGSTYFNSALKSRVTISRDTSKSQVSLKLSSVTAADTAVYYCTRPRWYPRSYFDYWGRGTLVTVS
VL: DVQLTQSPSFLSASVGDRVTITCKASKSISNHLAWYQEKPGKANKLLIHSGSTLQPGTPSRFSGSGSGTEFTLTISSLQPEDFATYYCQQYDEYPYTFGQGTRLEIK
modifications: Antibody variable region for anti-TcdB antibody 1134 (heavy chain); Antibody variable region for anti-TcdB antibody 1134
Regarding B1, in data set [2], the “ka” value is 509000 M⁻¹ s⁻¹ and the “kd” value amounted to 2.45e-05 s⁻¹. Besides, the “measured pI” value in data set [3] was 9.2. For the same molecule, in data set [4], the “Tm(CH2)” value came out at 69.2 °C and the “Tm(Fab) in PBS” value was 76.4 °C.

B2: CA995: humanised anti-toxin A IgG1; light chain variable SEQ ID NO: 37, heavy SEQ ID NO: 39 (antibody, V domains shown)
VH: EVQLVESGGGLVQPGGSLRLSCTASGFSLSNYDMIWVRQAPGKGLEYIGFINTGGITYYASWAKGRFTISRDSSTVYLQMNSLRAEDTATYFCARVDDYIGAWGAGLWGQGTLVTVS
VL: DVVMTQSPSTLSASVGDRVTITCQASQSINNYFSWYQQKPGKAPKLLIYGAANLASGVPSRFKGSGSGTEYTLTISSLQPDDFATYSCQNNYGVHIYGAAFGGGTKVEIK
modifications: Antibody variable region for anti-TcdA antibody 995 (heavy chain); Antibody variable region for anti-TcdA antibody 995
With B2, in data set [5], the “ka” value was found to be 287000 M⁻¹ s⁻¹ and the “kd” value was 3.42e-05 s⁻¹. Further, the “measured pI” value in data set [3] is on record as 8.5. In addition, in data set [4], the “Tm(Fab) in PBS” value was determined as 71 °C.
